Consider three molecules from patent US5726243.

The target of assay [1] is K1735 M4 tumor cells (melanoma cells). Description: adhesion of 3H-thymidine-labelled K1735 M4 cells to peptide-coated Immulon plates, 1 h at 37 °C.
For assay [2] the target is unchanged. Description: adhesion of 3H-thymidine-labelled K1735 M4 cells to peptide-coated Immulon plates, 1 h at 37 °C; one mole of SSP counted as three chains.

Take “THP-2, branched triple-helical polypeptide incorporating residues 1263-1277 from α1(IV) collagen”: the peptide concentration at half maximal melanoma cell adhesion in assay [1] is 1.12 µM.

On to “THP-3, branched triple-helical polypeptide of (Gly-Pro-Hyp)8”, for which, in assay [1], the peptide concentration at half maximal melanoma cell adhesion is greater than 100 µM.

B1: single-stranded peptide (SSP) incorporating residues 1263-1277 from the α1 chain of type IV collagen (peptide)
peptide: GVKGDKGNPGWPGAP
Turning to B1, the peptide concentration at half maximal melanoma cell adhesion in assay [2] came out at 170 µM.
